# Test results reported in patent US20230094597A1, “COMPOSITIONS AND METHODS FOR TREATING DISORDERS CHARACTERIZED WITH EXCESSIVE OSTEOCLAST ACTIVITY” (THE JOHNS HOPKINS UNIVERSITY, priority 2021, published 2023).
# How the values were obtained:
# MEK-ERK-MYC signaling = test: Western blot of ERK, MYC phosphorylation and Siglec15 in BMMs; type: cell-based, mouse
# Procedure: (§1) To explore the molecular mechanism of M-CSF activation of Siglec15, we used U0126, a selective of mitogen-activated protein kinase kinases inhibitor of MEK1 and MEK2. […] To understand Siglec15 transcription, we analyzed the core enhancer of Siglec15 and found three binding sites of MYC with high species […]. Chromatin immunoprecipitation (ChIP) assay was performed to investigate the interaction of MYC with the 3 deoxyribonucleic acid binding sites. […] MYC recognizes and binds to E-box domains with consensus recognition sequence of CACGTG or CATGTG (Guccione et al., 2006). In the 310-bp binding region, we recognized the sequences of TATGTG and AATGTG that share 80% similarities with reported binding bases. To confirm the role of these MYC recognition sequences, we constructed an enhancer reporter with this Siglec15 enhancer, and 3 mutants were derived by site-directed mutagenesis to inactivate the MYC recognition (FIG. 11E). […] Thus, M-CSF activates Siglec15 expression via MEK-ERK-MYC cascade.
# (§2) For the co-IP assays, cells were first lysed in the presence of protease inhibitors using IP buffer. […] SDS-PAGE was then used to separate the immunoprecipitates before transfer to a nitrocellulose membrane for immunoblotting procedures. […]
# WT BMMs = test: In vitro osteoclast differentiation assay (TRAP staining) of BMMs; type: cell-based, mouse
# Siglec15 = Siglec15 expression in BMMs (flow cytometry, immunostaining); type: cell-based, mouse
# Procedure: To understand the detailed mechanism of Siglec15 regulating osteoclast formation, we incubated WT BMMs with biotinylated Siglec15 monoclonal antibody and manually separated Siglec15^+ BMMs from Siglec15- BMMs using anti-biotin microbeads and magnetic separators (FIG. 4A). Separated Siglec15* and Siglec15- BMMs were then stimulated with M-CSF and RANKL for osteoclastogenesis. […] One study reported that osteoclast fusion might be initiated by a small subset of progenitors (Levaot et al., 2015); therefore, we combined separated Siglec15^+ BMMs with BMMs isolated from Siglec15^ΔLysM mice in different proportions (1%, 5%, and 10%). […] Immunofluorescent staining confirmed that Siglec15^+ and Siglec15^− BMMs can form multinucleated osteoclasts with normal actin rings, and the expression of Siglec15 was restored in Siglec15^− BMMs during osteoclastogenesis (FIG. 8). […] BMMs cultured with RANKL alone, absent M-CSF, cannot survive during osteoclastogenesis (FIG. 4D, E).
# as §1
# Mouse bone specimens were first fixed and then decalcified using 10% EDTA (Sigma-Aldrich, St. Louis, Mo., USA) for 14 days with constant shaking. For the histological assays, the detailed protocols were reported in a previous study (Dou, J. Bone Min. Res. 33, 899-908 (2018)). In short, the samples were then dehydrated and embedded in optimal cutting temperature compound (Sakura Finetek, Torrance, Calif., USA) or in paraffin. Four-μm-thick coronal-oriented femur sections were prepared for TRAP staining. Forty-μm-thick coronal-oriented femur sections were prepared for IF staining. The detailed protocols were described in a previous study study (Dou, J. Bone Min. Res. 33, 899-908 (2018)). Briefly, the sections were incubated with primary antibodies against mouse TLR2 (Santa Cruz Biotechnology, sc-21759, 1:200), Siglec15 (PA5-48221, Thermo Fisher Scientific, 1:100), ST3GAL1 (PA5-21721, Thermo Fisher Scientific, 1:50), and TRAP (Abcam, ab191406, 1:100) for 12 h at 4° C. For sialic acid detection, biotinylated Maackia Amurensis Lectin II (MAL II) (Vector Laboratories, CA, USA) was used to label the α2,3 linkage, and biotinylated Sambucus Nigra Lectin (SNA) (Vector Laboratories, CA, USA) was used to label the α2,6 linkage. Fluorescein-conjugated streptavidin (Vector Laboratories, CA, USA) was used for the addition of a fluorescent label to biotinylated sialic acid conjugates. A Zeiss LSM 780 confocal microscope and an Olympus BX51 microscope were used for image capture.
# To sort Siglec15^+ cells, whole bone marrow was collected from mouse femurs and tibias after mice were euthanized with an overdose of inhaled isoflurane. Whole bone marrow cells were also used for culture and induction of BMMs using M-CSF (50 ng mL^−1) for higher Siglec15^+ cell enrichment in further studies. After red blood cell lysis, the cell number was counted, and the same numbers of cells were incubated with a biotinylated mouse Siglec15-specific antibody (PA5-48221, Thermo Fisher Scientific). […]
# Siglec15 core enhancer = test: ChIP-PCR of MYC binding at the Siglec15 core enhancer; type: cell-based, mouse; details: BMMs, stimulation for 48 h
# Procedure: For the ChIP assay, primary BMMs were cultured with M-CSF or GM-CSF stimulation for 48 h to detect Siglec15 core enhancer DNA binding. M-CSF-primed cells were induced with RANKL for another 72 h to detect St3 gal1 core enhancer DNA binding. Afterward, the cells were cross-linked using 1% formaldehyde and lysed. DNA fragmentation was then achieved by enzymatic digestion with micrococcal nuclease (MNase). After digestion, 10% of the sample was preserved as the total input aliquot for further use. The remaining supernatant was then incubated with a ChIP-grade primary antibody against mouse p-CREB (Abcam, ab32096, 10 μg), c-FOS (Abcam, ab27793, 10 μg), or c-MYC (Abcam, ab9132, 10 μg). An anti-RNA Polymerase II antibody was used as the positive IP control, and normal rabbit IgG was used as the negative IP control. […] After elution, the DNA was then purified and recovered according to the manufacturer's instructions, and PCR detection was performed. The PCR primers used to detect MYC binding were as follows: Site #1, forward: [NT] ID NO: 1), and reverse: [NT] ID NO: 2); Site #2, forward: [NT] ID NO: 3), and reverse: [NT] ID NO: 4); and Site #3, forward: [NT] ID NO: 5), and reverse: [NT] ID NO: 6). The PCR primers used to detect FOS binding were as follows: forward: [NT] ID NO: 7), and reverse: [NT] ID NO: 8). The PCR primers used to detect CREB binding were as follows: forward: [NT] […]
# St3gal1 = St3gal1 transcription under estrogen; details: FIG. 26
# p65 = p65 nuclear translocation (immunostaining, western blot) in BMMs; type: cell-based, mouse
# TLR2 [1] = test: Immunostaining of α2,3 and α2,6 sialic acid in WT BMMs; type: cell-based, mouse
# Procedure: Because TLR2 has 4 N-linked glycosylation sites (Weber et al., 2004), to investigate the molecular mechanism of sialylation we tested α2,3 and α2,6 N-Linked SA modification, the two most common sialylation pattern in mammalian cells. […] To understand why α2,3 was sialylated, we examined each member expression profile of the entire sialyltransferase family. […] Moreover, α2,3 SA was immunocolocalized with TLR2, not with Siglec15 in WT and Siglec15^ΔLysM BMMs after RANKL stimulation for 24 h (FIGS. 16C, D).
# Mouse bone specimens were first fixed and then decalcified using 10% EDTA (Sigma-Aldrich, St. Louis, Mo., USA) for 14 days with constant shaking. For the histological assays, the detailed protocols were reported in a previous study (Dou, J. Bone Min. Res. 33, 899-908 (2018)). In short, the samples were then dehydrated and embedded in optimal cutting temperature compound (Sakura Finetek, Torrance, Calif., USA) or in paraffin. Four-μm-thick coronal-oriented femur sections were prepared for TRAP staining. Forty-μm-thick coronal-oriented femur sections were prepared for IF staining. The detailed protocols were described in a previous study study (Dou, J. Bone Min. Res. 33, 899-908 (2018)). […]
# TLR2 [2] = test: ELISA of peptidoglycan-induced cytokine secretion from BMMs; type: cell-based, mouse; details: RANKL, or RANKL plus sialidase
# Source text: To test signaling activity of α2,3 sialylation, we removed α2,3 SA of TLR2 induced by RANKL by adding sialidase in the BMM culture. […] To examine the transcriptional mechanism of ST3Gal1 activation by RANKL, we analyzed 5′ promoter sequence of ST3Gal1 and recognized binding sites for CREB1 and FOS (downstream transcription factors of RANKL signaling) in the core enhancer (FIG. 16E). […] To confirm the functional activity of the FOS site, we constructed an enhancer reporter with ST3Gal1 enhancer and FOS mutant binding sites. […] To validate RANKL-induced sialylation in vivo, we crossed RANKL^ﬂ/ﬂ mice with the Dmp1-Cre strain to generate osteocyte-specific RANKL knockout mice (RANKLΔ^Dmp1). […] Furthermore, the Siglec15-TLR2 co-localization that can be observed in RANKL^ﬂ/ﬂ mice disappeared in RANKL^ΔDmp1 mice (FIG. 19B).
# Siglec15-DAP12 = test: Co-IP of Siglec15 with DAP12 and DAP12 tyrosine phosphorylation in BMMs; type: cell-based, mouse; details: BMMs induced with RANKL, sialidase or both
# Procedure: To examine whether Siglec15 downstream signaling is activated by binding to sialylated TLR2, co-IP of Siglec15 with DAP12, a key factor for cell fusion, was conducted in BMMs induced with RANKL, sialidase or both. […] Moreover, tyrosine phosphorylation of DAP12 was detected in the co-IP experiment upon RANKL induction of Siglec15 clustering but was again impaired by sialidase treatment (FIG. 28d). We then tested whether TLR2 signaling is activated by binding to Siglec15. The recruitment of MyD88 to TLR2 was examined by co-IP. […] Removal of SA by sialidase reduced MyD88 recruitment and NFATc1 activation (FIG. 28e). […] Cell-cell fusion is a fundamental cellular activity of macrophages, and multinucleation is a complex process that is likely involved in multiple signaling pathways. Activation of downstream signaling by both Siglec15 and sialylated TLR2 is involved in different cells simultaneously, and both signaling pathways could also occur in each cell, which could be the critical mechanism for cell fusion.
# as §2
molecule,measurement,setting,value
"N#CC(=C(/N)Sc1ccccc1N)/C(C#N)=C(\N)Sc1ccccc1N [U0126, reference compound]",M-CSF-ERK-MYC-Siglec15 cascade,"MEK-ERK-MYC signaling; M-CSF+U0126, 0-72 h",blocked this cascade
same,cell survival rate,"WT BMMs; WT BMMs, U0126 10 μmol·L^-1",decreases
same,osteoclastogenesis,"WT BMMs; WT BMMs, U0126 10 μmol·L^-1",decreases
same,Siglec15 upregulated by M-CSF,"Siglec15; BMMs, M-CSF+U0126, immunostaining",abrogated
"GM-CSF: granulocyte-macrophage CSF, encoded by CSF2",binding of MYC with the core enhancer of Siglec15,Siglec15 core enhancer,cannot induce
same,osteoclastogenesis,WT BMMs; BMMs induced with RANKL+GM-CSF,cannot induce
same,expression of Siglec15,"Siglec15; BMMs treated with GM-CSF, immunostaining",cannot induce
estrogen,RANKL-activated St3gal1 transcription,St3gal1,inhibits
"M-CSF: macrophage colony stimulating factor (protein, UniProt P09603 33-554, looked up) Macrophage colony-stimulating …: EEVSEYCSHMIGSGHLQSLQRLIDSQMETSCQITFEFVDQEQLKDPVCYLKKAFLLVQDIMEDTMRFRDNTPNAIAIVQLQELSLRLKSCFTKDYEEHDKACVRTFYETPLQLLEKVKNVFNETKNLLDKDWNIFSKNCNNSFAECSSQDVVTKPDCNCLYPKAIPSSDPASVSPHQPLAPSMAPVAGLTWEDSEGTEGSSLLPGEQPLHTVDPGSAKQRPPRSTCQSFEPPETPVVKDSTIGGSPQPRPSVGAFNPGMEDILDSAMGTNWVPEEASGEASEIPVPQGTELSPSRPGGGSMQTEPARPSNFLSASSPLPASAKGQQPADVTGTALPRVGPVRPTGQDWNHTPQKTDHPSALLRDPPEPGSPRISSLRPQGLSNPSTLSAQPQLSRSHSSGSVLPLGELEGRRSTRDRRSPAEPEGGPASEGAARPLPRFNSVPLTDTGHERQSEGSFSPQLQESVFHLLVPSVILVLLAVGGLLFYRWRRRSHQEPQRADSPLEQPEGSPLTQDDRQVELPV",MYC phosphorylation via ERK activation,MEK-ERK-MYC signaling; western blot,phosphorylated the Ser62 of MYC
same,Siglec15 expression in separated Siglec15- BMMs,"Siglec15; FCM, after 3 days of stimulation",restored Siglec15 expression
same,proportion of Siglec15+ BMMs,"Siglec15; flow cytometry, Siglec15 ΔLysM mice, M-CSF 3 days",no obvious changes
same,proportion of Siglec15+ BMMs,"Siglec15; flow cytometry, whole bone-marrow cells of Siglec15 fl/fl mice, M-CSF 3 days",significantly increased
same,proportion of Siglec15+ BMMs,"Siglec15; immunofluorescent staining, Siglec15 fl/fl mice",significantly increased
"RANKL: receptor activator of NF-κappaB ligand (protein, UniProt O14788 140-317, looked up) Tumor necrosis factor ligand …: IRAEKAMVDGSWLDLAKRSKLEAQPFAHLTINATDIPSGSHKVSLSSWYHDRGWAKISNMTFSNGKLIVNQDGFYYLYANICFRHHETSGDLATEYLQLMVYVTKTSIKIPSSHTLMKGGSTKYWSGNSEFHFYSINVGGFFKLRSGEEISIEVSNPSLLDPDQDATYFGAFKVRDID",p65 nuclear translocation,p65,activated
same,"α2,3 sialylation of TLR2",TLR2 [1],robustly induced
same,peptidoglycan-induced secretion of IL-6,TLR2 [2],inhibited
same,peptidoglycan-induced secretion of TNF-α,TLR2 [2],inhibited
same,association of Siglec15 with DAP12,Siglec15-DAP12,induced the association of Siglec15 with DAP12
